From publication PMC11117068

Molecular target: complement C3b (UniProt P01024)
Test: not stated; C3b binding affinity of polymorphic variants, data in Supplementary Table S3

fold lower C3b binding affinity than the CPV-101 Ile62/Tyr402 variant: 1.5 fold
Substance: moss-produced factor H Val62/His402 variant (from UniProt P08603 19-1231) (natural protein)
